Tests used:
RNase T [1] = target: T1, RNase T (Escherichia coli (JM109 or K-12), UniProt P30014 1-215); test: EMSA; 30 mM EDTA, 10 mM EGTA; EMSA: 20 nM DNA, 0/5/50 uM protein, 100 mM NaCl, 30 mM EDTA, 10 mM EGTA, 50 mM Tris-HCl pH 7.0, 20 min, room temperature; conditions: protein: recombinant, tags: N-terminal His (pET-28a), chain copies: 2, label: 5'-32P, hairpin
T1 sequence: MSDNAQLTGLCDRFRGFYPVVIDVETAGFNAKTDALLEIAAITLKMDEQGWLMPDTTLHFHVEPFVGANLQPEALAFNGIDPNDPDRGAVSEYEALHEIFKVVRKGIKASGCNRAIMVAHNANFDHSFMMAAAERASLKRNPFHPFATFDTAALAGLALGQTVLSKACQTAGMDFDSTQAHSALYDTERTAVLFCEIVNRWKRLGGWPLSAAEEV

[2] = target: the molecule itself; test: dynamic light scattering; purified recombinant proteins in solution; conditions not given
RNase T [3] = target: T1, RNase T; test: X-ray crystallography; 2 Mg2+ in active site; one DNA per protomer; 1.9 A; EMSA: 20 nM DNA, 0/5/50 uM protein, 100 mM NaCl, 30 mM EDTA, 10 mM EGTA, 50 mM Tris-HCl pH 7.0, 20 min, room temperature; conditions: protein: recombinant; tags: N-terminal His (pET-28a); chain copies: 2; Y structure (5' and 3' unpaired tails)

B1: Stem-loop duplex DNA, 10-nt 3' overhang (structured_DNA)
DNA: GGCCCTCTTTAGGGCCAAGGGTTTAA
binding result (RNase T [1]; 3' overhang 10 nt): binds

B2: Stem-loop duplex DNA, 4-nt 3' overhang (structured_DNA)
DNA: GGCCCTCTTTAGGGCCTTAA
binding result (RNase T [1]; 3' overhang 4 nt): binds

B3: RNase T (enzyme, E. coli, UniProt P30014 1-215, looked up)
chain: T1 sequence
notes: RNase T (rnt gene) of E. coli, full-length gene amplified from genomic DNA of JM109 or K-12 strains, cloned into NdeI/XhoI sites of pET-28a; Wild-type RNase T was used for crystallisation; also called rnt; DnaQ-like exonuclease RNase T; source: E. coli BL21-CodonPlus(DE3)-RIPL, purified (HiTrap TALON, HiTrap Heparin, Superdex 75)
stoichiometry N [2]: 2

B4: Y-structured DNA, 3'-CC (crystal) (structured_DNA)
DNA: TTGGCCCTCTTTAGGGCCCC
binding result (RNase T [3]): binds

B5: Stem-loop duplex DNA, 6-nt 3' overhang (structured_DNA)
DNA: GGCCCTCTTTAGGGCCTTATAA
binding result (RNase T [1]; 3' overhang 6 nt): binds

— paper PMC3942315, “Structural Insights Into DNA Repair by RNase T—An Exonuclease Processing 3′ End of Structured DNA in Repair Pathways” (PLoS Biology, 2014)
